Data: US7408028B2, “Peptides, antibodies thereto, and their use in treatment of central nervous system, damage” (Sinapore General Hospital Pte Ltd., priority 2002, dated 2008)

Experiments:
[1] = target: T1, Nogo-66 (Homo sapiens, UniProt Q9NQC3); test: Phage display panning (Ph.D-7 library), clones identified by ELISA and sequencing; format: binding; set-up: GST; made in house; settings: target Nogo-66, 3-4 rounds of affinity selection
T1 sequence (Q9NQC3 1055-1120): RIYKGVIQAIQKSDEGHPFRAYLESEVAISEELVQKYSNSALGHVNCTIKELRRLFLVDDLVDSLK
Method: (§1) Purification of TN-R, MAG and Nogo from adult mouse brains was performed by immumoaffinity chromatography as previously described (Pesheva, P et al, 1989). Generation and purification of the recombinant domains of TN-R, MAG, Nogo as fusion proteins with GST were performed as previously described (Xiao Z C et al, 1996). All these proteins were used as phage binding targets for rapid screening, using the Ph. D-7TM phage display peptide library kit (New England Biolabs, Ltd) according to the manufacturer's instructions.
(§2) Briefly, a library of phages, displaying different peptide sequences, was exposed to a plate coated with the target protein. Unbound phage was washed away and specifically bound phage was eluted by lowering pH. The eluted pool of phage was amplified, and the process was repeated 3-4 times.
(§3) The peptide-encoding sequences of the specific phage clones were determined by automated sequencing. The sequences of peptides which bound specifically to the targeted proteins were obtained.
(§4) Exemplary 7-mer peptide-endcoding sequences are shown below. “n” refers to the number of isolated phages displaying a peptide having the sequence shown (though there was of course some variability in the encoding nucleic acid sequences, owing to the degeneracy of the genetic code). “SIN” is an abbreviation for “SEQ ID NO.” and refers to the peptide sequence. The SEQ ID NOS of the nucleic acid sequences from the top to the bottom of the table are as follows: SEQ ID NO: 28, SEQ ID NO: 29, SEQ ID NO: 30, SEQ ID NO: 31, SEQ ID NO: 32, SEQ ID NO: 29, SEQ ID NO: 33. SEQ ID NO: 28, SEQ ID NO: 34, SEQ ID NO: 35.

[2] = target: T2, TNR-EGFL (Homo sapiens, UniProt Q92752); test: as above; format: binding; settings: target TNR-EGFL, 3-4 rounds of affinity selection
T2 construct: GST; made in house
T2 sequence (Q92752 125-329): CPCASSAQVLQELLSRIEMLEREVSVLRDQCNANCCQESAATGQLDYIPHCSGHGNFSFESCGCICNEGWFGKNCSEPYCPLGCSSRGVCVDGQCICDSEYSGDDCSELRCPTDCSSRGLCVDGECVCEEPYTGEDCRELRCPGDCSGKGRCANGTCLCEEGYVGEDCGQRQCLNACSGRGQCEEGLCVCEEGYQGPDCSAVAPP
Method: as §1, §2, §3, §4

[3] = target: T3, MAG (Mus musculus, UniProt P20917); test: as above; format: binding; settings: target MAG, 3-4 rounds of affinity selection
T3 construct: from tissue; host or cells: adult mouse brain
T3 sequence (P20917 20-627): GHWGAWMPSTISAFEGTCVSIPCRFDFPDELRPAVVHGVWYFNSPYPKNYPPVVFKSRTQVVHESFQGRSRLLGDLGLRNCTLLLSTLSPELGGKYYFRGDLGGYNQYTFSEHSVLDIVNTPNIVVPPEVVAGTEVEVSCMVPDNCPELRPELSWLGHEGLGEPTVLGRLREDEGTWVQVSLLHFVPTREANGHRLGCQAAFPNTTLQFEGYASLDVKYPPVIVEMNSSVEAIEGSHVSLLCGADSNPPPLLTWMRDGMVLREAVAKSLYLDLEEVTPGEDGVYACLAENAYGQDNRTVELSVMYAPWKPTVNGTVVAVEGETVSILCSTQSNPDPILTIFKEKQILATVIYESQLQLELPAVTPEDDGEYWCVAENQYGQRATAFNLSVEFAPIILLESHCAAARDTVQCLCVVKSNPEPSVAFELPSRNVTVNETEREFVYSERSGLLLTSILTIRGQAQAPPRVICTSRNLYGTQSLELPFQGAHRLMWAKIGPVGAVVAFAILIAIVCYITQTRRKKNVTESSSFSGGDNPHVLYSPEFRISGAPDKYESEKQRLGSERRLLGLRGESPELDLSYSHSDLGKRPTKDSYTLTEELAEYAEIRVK
Method: as §1, §2, §3, §4

[4] = target: T1, Nogo-66; test: Phage blocking of the inhibitory effect on NG108 cell adhesion; format: cell-based; set-up: made in house; settings: peptide displayed on phage, 24 hours
Method: (§5) NG108 cells were plated on poly-DL-ornithine-treated tissue culture petri dish as single-cell suspensions. Specific phages that display the Nogo66-, MAG- and TNR-binding peptides identified above were added to the cell culture. Cells were maintained for 24 hours before fixation and staining with toluidine blue. Cell adhesion was determined as previously described.

[5] = target: T3, MAG; test: as above; format: cell-based; settings: peptide displayed on phage, 24 hours
Method: as §5

[6] = system: TNR-EGFL; test: as above; format: cell-based; settings: peptide displayed on phage, 24 hours
Method: as §5

[7] = system: postnatal day 1 hippocampal neurons; settings: coated protein; cited from earlier work
[8] = system: NG108 cells; test: Neuronal cell adhesion to protein spots on nitrocellulose-coated dishes; format: cell-based, mouse neuroblastoma—rat glioma hybrid cells; settings: spots 5 μM GST-Nogo66, 100 μM Nogo66, Nogol-50, Nogol-25; 12 hours; p<0.05
Method: Tissue culture petri dishes (Becton Dickinson) with a diameter of 3.5 cm were coated with methanol-solubilized nitrocellulose according to Lagenaur and Lemmon (1987) and air-dried under a sterile hood. Then the petri dishes were incubated with PBS containing 5 μg/ml poly-DL-ornithine for 2 hours at 37° C. Subsequently, the dishes were washed three times with PBS and dried under a sterile hood.
Protein spots (1.5 μl of 5 μM GST, 5 μM GST-Nogo66, 100 μM Nogo66, 100 μM Nogol-50 or 100 μM Nogol-25) were applied to the nitrocellulose-coated surfaces of the petri dishes and incubated for 2 hours at 37° C. in a humidified atmosphere. Subsequently, the spots were washed three times with PBS. The dishes were then flooded with PBS containing 2% heat-inactivated fatty acid-free BSA (Sigma) and incubated overnight to block residual non-specific protein binding sites.
Then, the dishes were washed with PBS and NG108 cells were plated in 2 ml of Dulbecco's modified Eagle's medium containing 10% fetal bovine serum at a density of 2.5×10^5 cells/ml and incubated at 37° C. in a humidified atmosphere. After 12 hours, the dishes were gently washed three times with PBS and the cells fixed by flooding with PBS containing 2.5% glutaraldehyde. After fixation, cultures were stained with 0.5% toluidine blue (Sigma) in 2.5% sodium carbonate. […]
Cells adhering to the various spots were photographed and counted. […]

[9] = system: NG108 cells; test: Neurite outgrowth assay on coated Nogo domain substrates; format: cell-based, mouse neuroblastoma—rat glioma hybrid cells; settings: coated substrate, GST as control
Method: NG108 cells were plated on coated substrates using Nogol-25, Nogol-50, Nogol-66, and GST-Nogo-66 as well as GST as control.

[10] = system: NG108 cells; test: Repulsion assay on coated Nogo domain substrates; format: cell-based, mouse neuroblastoma—rat glioma hybrid cells; settings: GST as control
Method: NG108 cells (mouse neuroblastoma—rat glioma hybrid cells, commercially available from the American Tissue Type Culture Collection, Manassas, Va., USA, under accession number ATCC HB-12317) were plated on coated substrates using Nogol-25, Nogol-50, Nogol-66 and GST-Nogo-66 as well as GST as control. Generation and purification of the recombinant domains of Nogo, either alone or as fusion proteins with GST, were performed as previously described (Xiao Z C et al, 1996).

## GSLPHSL (From a phage library that displays random 7-mers)
[1]
  n, number of isolated phages displaying the peptide: GSLPHSL (n = 8)
[1]; listed as SEQ ID NO. 2
  n, number of isolated phages displaying the peptide: 8
[2]
  n, number of isolated phages displaying the peptide: GSLPHSL (n = 1)

## YTTPPSP (From a phage library that displays random 7-mers)
[2]
  n, number of isolated phages displaying the peptide: YTTPPSP (n = 1)
[2]; listed as SEQ ID NO. 6
  n, number of isolated phages displaying the peptide: 1

## QLPLMPR (From a phage library that displays random 7-mers)
[3]
  n, number of isolated phages displaying the peptide: QLPLMPR (n = 5)
[3]; listed as SEQ ID NO. 7
  n, number of isolated phages displaying the peptide: 5

## HHMPHDK (From a phage library that displays random 7-mers)
[2]
  n, number of isolated phages displaying the peptide: HHMPHDK (n = 1)
[2]; listed as SEQ ID NO. 5
  n, number of isolated phages displaying the peptide: 1

## YLTQPQS (From a phage library that displays random 7-mers)
[4]
  Block of the inhibitory effect of Nogo-66 on NG108 cell binding: able to block
[4]; listed as SEQ ID NO. 1
  Block of the inhibitory effect of Nogo-66 on NG108 cell binding: block
[1]
  n, number of isolated phages displaying the peptide: YLTQPQS (n = 43)
[1]; listed as SEQ ID NO. 1
  n, number of isolated phages displaying the peptide: 43
[5]
  Block of the inhibitory effect of MAG on NG108 cell binding: able to block
[5]; listed as SEQ ID NO. 1
  Block of the inhibitory effect of MAG on NG108 cell binding: block
[3]
  n, number of isolated phages displaying the peptide: YLTQPQS (n = 19)
[3]; listed as SEQ ID NO. 1
  n, number of isolated phages displaying the peptide: 19

## HSIPDNI (From a phage library that displays random 7-mers)
[2]
  n, number of isolated phages displaying the peptide: HSIPDNI (n = 3)
[2]; listed as SEQ ID NO. 4
  n, number of isolated phages displaying the peptide: 3

## TQLFPPQ (From a phage library that displays random 7-mers)
[6]
  Block of the inhibitory effect of TNR-EGFL on NG108 cell binding: able to block
[6]; listed as SEQ ID NO. 3
  Block of the inhibitory effect of TNR-EGFL on NG108 cell binding: block
[2]
  n, number of isolated phages displaying the peptide: TQLFPPQ (n = 18)
[2]; listed as SEQ ID NO. 3
  n, number of isolated phages displaying the peptide: 18
[3]
  n, number of isolated phages displaying the peptide: TQLFPPQ (n = 7)

B1: rMAG: coated recombinant MAG (protein, UniProt P20916 20-626, looked up)
Myelin-associated glycoprotein: GHWGAWMPSSISAFEGTCVSIPCRFDFPDELRPAVVHGVWYFNSPYPKNYPPVVFKSRTQVVHESFQGRSRLLGDLGLRNCTLLLSNVSPELGGKYYFRGDLGGYNQYTFSEHSVLDIVNTPNIVVPPEVVAGTEVEVSCMVPDNCPELRPELSWLGHEGLGEPAVLGRLREDEGTWVQVSLLHFVPTREANGHRLGCQASFPNTTLQFEGYASMDVKYPPVIVEMNSSVEAIEGSHVSLLCGADSNPPPLLTWMRDGTVLREAVAESLLLELEEVTPAEDGVYACLAENAYGQDNRTVGLSVMYAPWKPTVNGTMVAVEGETVSILCSTQSNPDPILTIFKEKQILSTVIYESELQLELPAVSPEDDGEYWCVAENQYGQRATAFNLSVEFAPVLLLESHCAAARDTVQCLCVVKSNPEPSVAFELPSRNVTVNESEREFVYSERSGLVLTSILTLRGQAQAPPRVICTARNLYGAKSLELPFQGAHRLMWAKIGPVGAVVAFAILIAIVCYITQTRRKKNVTESPSFSAGDNPPVLFSSDFRISGAPEKYESERRLGSERRLLGLRGEPPELDLSYSHSDLGKRPTKDSYTLTEELAEYAEIRVK
[7]
  Axonal growth cones collapsed: 60%

B2: denatured rMAG: denatured recombinant MAG (protein, UniProt P20916 20-626, looked up)
Myelin-associated glycoprotein: B1 Myelin-associated glycoprotein
modifications: denatured recombinant
notes: denatured recombinant MAG
[7]
  Axonal growth cones collapsed: not observed

B3: Nogol-66: recombinant domain of Nogo (66-residue extracellular domain) used as coated substrate (protein)
chain: T1 sequence (Q9NQC3 1055-1120)
modifications: not fully specified
notes: recombinant domain of Nogo (66-residue extracellular domain) used as coated substrate
[8]
  NG108 cell counts adhering to protein spot compared to GST: significantly reduced
[9]
  Neurite outgrowth of NG108 cells inhibited: inhibited significantly
[10]
  NG108 cells repelled from coated substrate: repelled significantly

B4: GST-Nogo-66: recombinant Nogo-66 domain as fusion protein with GST (protein)
chain: T1 sequence (Q9NQC3 1055-1120)
modifications: also: fused to GST
notes: recombinant Nogo-66 domain as fusion protein with GST
[8]
  NG108 cell counts adhering to protein spot compared to GST: significantly reduced
[9]
  Neurite outgrowth of NG108 cells inhibited: inhibited significantly
[10]
  NG108 cells repelled from coated substrate: repelled significantly
